What was measured:
人PD-L1胞外区-6His [1] = target: T1, 人PD-L1胞外区-6His (human, UniProt Q9NZQ7 19-238); assay: AlphaLISA competition: antibody titrated against binding of His-tagged PD-L1 to biotinylated PD-1
T1 construct: also called PD-L1-6His; 人PD-L1胞外结构区-6His蛋白

人PD-L1胞外区-6His [2] = target: T1, 人PD-L1胞外区-6His; assay: SPR (Biacore), multi-cycle kinetics; antibody captured on Protein A chip, PD-L1 as analyte from 40 nM in 2-fold dilutions, 6 concentrations

T1 sequence (Q9NZQ7 other isoform, or with tags, fused parts or gaps): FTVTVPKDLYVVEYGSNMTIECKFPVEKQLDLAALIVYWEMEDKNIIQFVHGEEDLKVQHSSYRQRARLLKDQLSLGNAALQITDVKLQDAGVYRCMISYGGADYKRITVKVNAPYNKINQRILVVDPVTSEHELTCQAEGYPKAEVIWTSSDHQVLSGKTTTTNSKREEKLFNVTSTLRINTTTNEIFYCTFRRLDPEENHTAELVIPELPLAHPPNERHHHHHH

B1: 抗PD-L1全人源单克隆抗体 (antibody, V domains shown)
VH: QVQLVQSGGELKRPGSSVKVSCKASGGTFSSYAISWVRQAPGQGLEWMGRIIPIFGTANYAQKFQGRVTITADESTSTAYMELSSLRSEDTAVYYCASSSYRHFAFDIWGQGTTVTVSS
VL: QSALTQPASVSGSPGQSITISCTGTSSDVGSYNLVSWYQQHPGKAPKLMIYEVTKRPSGVSNRFSGSKSGNTASLTISGLQAEDEADYYCSSYAGSNNLVFGGGTKVTVL
notes: also called 抗PD-L1抗体; 抗PD-L1全长抗体
IC50 (人PD-L1胞外区-6His [1]): 0.0372 mg/L | Kd (人PD-L1胞外区-6His [2]): 7.1 nM

Reference: patent CN110156895A (SHANGHAI JIABEI BIOMEDICAL TECH CO LTD, dated 2019)
